Assay results taken from patent US20140377284A1 (BIOCEROX PRODUCTS B V, published 2014).
Blank lines part the entries; values can stand above or below the binder they belong to.

Key:
[1] = biological target: T1, recombinant human CD134:human Fcγ (IgG1) fusion protein (human, UniProt P01857-1 100-330 = IgG part, limits assumed); experiment: ELISA, plate-bound CD134:Fc 50 ng/well
T1 construct: domain: Fcγ (IgG1); Bought (R&D Systems); also called rhuCD134
Description: Ninety six-wells flat-bottom ELISA plates (Corning) were coated with 50 ng/well recombinant human CD134:human Fcγ (IgG1) fusion protein (R&D Systems) in PBS o/n at 4° C. After extensive washing in PBS/0.05% Tween 20, plates were blocked in PBS/0.05% Tween 20/1% BSA fraction V (Roche) for 1 hour at RT. […] After extensive washing in PBS/0.05% Tween 20, binding of antibodies was determined with 1:5000 diluted horseradish peroxidase-conjugated goat anti-mouse (Fcγ specific) antibodies (Jackson ImmunoResearch) or with 1:4000 diluted horseradish peroxidase-conjugated goat anti-human κ-specific antibodies (Southern Biotech) for 1 hour at RT, followed by a ready-to-use solution of TMB substrate (Invitrogen) for colorimetric detection. After adding 1 M H₂SO₄, optical densities were measured at, a wavelength of 450 nm (reference wavelength of 655 nm) using a microplate reader (BioRad).

[2] = biological target: T2, human CD134 (full-length, on cells) (human, UniProt P43489 29-277); experiment: flow cytometry, stable CD134 293-F clone no. 5
T2 construct: also called OX40; TNFRSF4
T2 sequence: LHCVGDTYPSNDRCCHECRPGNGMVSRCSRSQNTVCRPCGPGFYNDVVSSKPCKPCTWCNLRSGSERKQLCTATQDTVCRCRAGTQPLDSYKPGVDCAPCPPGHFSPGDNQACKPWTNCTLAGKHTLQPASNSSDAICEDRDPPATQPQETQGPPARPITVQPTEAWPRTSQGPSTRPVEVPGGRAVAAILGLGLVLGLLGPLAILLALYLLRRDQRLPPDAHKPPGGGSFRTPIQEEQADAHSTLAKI
Description: (§1) Full-length human CD134 (SEQ ID NO. 1) was re-cloned in a pcDNA3.1-derived expression plasmid (see Example 11 (d) below). […] After extensive washing in PBS/BSA/NaN₃, cells were subsequently incubated with 1:200 diluted PE-conjugated goat anti-mouse IgG (Fcγ specific) antibodies (Jackson ImmunoResearch) or with 1:200 diluted PE-conjugated goat anti-human IgG (Fcγ specific) antibodies (Jackson ImmunoResearch) for 30 minutes at 4° C. After extensive washing in PBS/BSA/NaN₃, cells were fixed in 2% formaldehyde in PBS/BSA/NaN₃ for 30 minutes at 4° C. Binding of antibodies was measured using flow cytometry (FACSCalibur; BD Biosciences).

[3] = biological target: T3, truncated human CD134 'CRD4' construct (human, UniProt P43489 127-277); experiment: flow cytometry, transiently transfected 293-F cells, 20.0 µg/mL
T3 construct: also called truncated human CD134 variant that lacked CRD1-CRD2-truncated CRD3 A1-module
T3 sequence: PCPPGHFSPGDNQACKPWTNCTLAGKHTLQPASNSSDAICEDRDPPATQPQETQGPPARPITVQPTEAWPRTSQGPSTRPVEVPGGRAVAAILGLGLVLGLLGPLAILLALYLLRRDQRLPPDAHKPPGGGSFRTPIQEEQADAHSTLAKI
Description: (§2) After 48 h, surface human CD134 expression on transfected cells was analyzed by FACS analysis. To this end, transfected cells were harvested and put at 1-2×10⁶ cells/mL in ice-chilled PBS/BSA/NaN₃ supplemented with 50 μg/mL purified human IgG (Sigma; blocking Fey receptors). […] After extensive washing in PBS/BSA/NaN₃, cells were subsequently incubated with 1:200 diluted PE-conjugated goat anti-mouse IgG (Fcγ specific) antibodies (Jackson ImmunoResearch) or with 1:200 diluted PE-conjugated goat anti-human IgG (Fcγ specific) antibodies (Jackson ImmunoResearch) for 30 minutes at 4° C. […] After extensive washing in PBS/BSA/NaN₃, cells were subsequently incubated with 1:200 diluted PE-conjugated goat anti-mouse IgG (Fcγ specific) antibodies (Jackson ImmunoResearch) for 30 minutes at 4° C. After extensive washing in PBS/BSA/NaN₃, cells were fixed in 2% formaldehyde in PBS/BSA/NaN₃ for 30 minutes at 4° C. Binding of antibodies was measured using flow cytometry (FACSCalibur; BD Biosciences).

[4] = biological target: T4, truncated human CD134 'CRD3' construct (human, UniProt P43489 108-277); experiment: as above
T4 construct: also called truncated human CD134 variant that lacked CRD1-CRD2
T4 sequence: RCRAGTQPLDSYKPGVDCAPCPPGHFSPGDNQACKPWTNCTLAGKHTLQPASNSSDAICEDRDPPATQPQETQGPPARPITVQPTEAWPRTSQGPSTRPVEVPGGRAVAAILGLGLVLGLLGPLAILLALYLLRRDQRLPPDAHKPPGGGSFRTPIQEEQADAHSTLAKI
Description: as §2

[5] = biological target: T2, human CD134 (full-length, on cells); experiment: flow cytometry, OX40L 10.0 µg/mL with anti-polyhistidine antibody
Description: PHA-stimulated (at 10 μg/mL for 1 day; see above) human CD134 expressing T lymphocytes were generated. […] After extensive washing in PBS/BSA/NaN₃, cells were fixed in 2% formaldehyde in PBS/BSA/NaN₃ for 30 minutes at 4° C.

[6] = biological target: T5, human fibronectin-derived control peptide (extra type III structural domain) (human); experiment: peptide ELISA
T5 construct: Synthesized by Pepscan Presto; coated on ELISA plates
T5 peptide: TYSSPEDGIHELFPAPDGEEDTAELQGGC
Description: (§3) After adding 1 M […], optical densities was measured at a wavelength of 450 nm (reference wavelength of 655 nm) using a microplate reader (BioRad).
(§4) Ninety six-wells flat-bottom ELISA plates (Corning) were coated with 10 ng/well human CD134-derived peptide (synthesized by Pepscan Presto, Lelystad, The Netherlands), which corresponded to amino acid sequence of truncated CRD3 A1-module-CRD4 subdomain A1 module (see SEQ ID NO. 38) or with 10 ng/well human fibronectin-derived control peptide (synthesized by Pepscan Presto, Lelystad, The Netherlands), which corresponded to amino acid sequence of extra type III structural domain (see SEQ ID NO. 37) in PBS o/n at 4° C. After extensive washing in PBS/0.05% Tween 20, plates were blocked in PBS/0.05% Tween 20/1% BSA fraction V (Roche) for 1 hour at RT. […] After extensive washing in PBS/0.05% Tween 20, binding of antibodies was determined with 1:5000 diluted horseradish peroxidase-conjugated goat anti-human IgG Fcγ-specific antibodies (Jackson ImmunoResearch) for 1 hour at RT, followed by a ready-to-use solution of TMB substrate (Invitrogen) for colorimetric detection. After adding 1 M H₂SO₄, optical densities was measured at a wavelength of 450 nm (reference wavelength of 655 nm) using a microplate reader (BioRad).

[7] = biological target: T6, human CD134-derived peptide (truncated CRD3 A1-module-CRD4 subdomain A1-module) (human); experiment: peptide ELISA, 10 ng/well peptide coated
T6 construct: Synthesized by Pepscan Presto; coated on ELISA plates
T6 peptide: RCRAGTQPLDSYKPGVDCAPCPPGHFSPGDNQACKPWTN
Description: as §3, §4

[8] = biological target: T2, human CD134 (full-length, on cells); experiment: flow cytometry, stable CD134 293-F clone no. 23
Description: as §1

[9] = biological target: T1, recombinant human CD134:human Fcγ …; experiment: competition ELISA, plate-bound CD134:Fc; competitor biotinylated mouse 12H3 at 20 ng/mL
Description: Ninety six-wells flat-bottom ELISA plates (Corning) were coated with 50 ng/well recombinant human CD134:human Fcγ (IgG1) fusion protein (R&D Systems) in PBS o/n at 4° C. After extensive washing in PBS/0.05% Tween 20, plates were blocked in PBS/0.05% Tween 20/1% BSA fraction V (Roche) for 1 hour at RT. […] After adding 1 M H₂SO₄, optical densities were measured at a wavelength of 450 nm (reference wavelength of 655 nm) using a microplate reader (BioRad).

[10] = biological target: T7, truncated human CD134 'truncated (tc) CRD4' construct (human, UniProt P43489 147-277); experiment: flow cytometry, transiently transfected 293-F cells (parental 12H3: binding completely absent on tcCRD4)
T7 construct: also called truncated CRD4
T7 sequence: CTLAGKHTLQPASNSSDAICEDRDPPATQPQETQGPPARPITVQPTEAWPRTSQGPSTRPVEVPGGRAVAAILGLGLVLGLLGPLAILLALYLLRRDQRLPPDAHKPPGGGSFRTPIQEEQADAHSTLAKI
Description: After 48-72 h, surface human CD134 expression on transfected cells was analyzed by FACS analysis. To this end, transfected cells were harvested and put at 1-2×10⁶ cells/mL in ice-chilled PBS/BSA/NaN₃. […] After extensive washing in PBS/BSA/NaN₃, cells were subsequently incubated with 1:200 diluted PE-conjugated goat anti-human IgG (Fcγ specific) antibodies (Jackson ImmunoResearch) for 30 minutes at 4° C. After extensive washing in PBS/BSA/NaN₃, cells were fixed in 2% formaldehyde in PBS/BSA/NaN₃ for 30 minutes at 4° C. Binding of antibodies was measured using flow cytometry (FACSCalibur; BD Biosciences).

[11] = biological target: T2, human CD134 (full-length, on cells); experiment: competition flow cytometry, stable CD134 293-F clone no. 5; competitor biotinylated mouse 12H3 at 700 ng/mL
Description: Full-length human CD134 (SEQ ID NO1) was re-cloned in a pcDNA3.1-derived expression plasmid (see Example 11 (c) above). […] After extensive washing in PBS/BSA/NaN₃, cells were fixed in 2% formaldehyde in PBS/BSA/NaN₃ for 30 minutes at 4° C.

[12] = biological target: T2, human CD134 (full-length, on cells); experiment: flow cytometry, PHA-stimulated human CD4+ T lymphocytes (data not shown)
Description: PHA-stimulated (at 10 μg/mL for 1 day; see above) human CD134 expressing T lymphocytes were generated. […] After extensive washing in PBS/BSA/NaN₃, cells were subsequently incubated with 1:50 diluted FITC-conjugated mouse anti-human IgG4 antibodies (Sigma) for 30 minutes at 4° C. […] After extensive washing in PBS/BSA/NaN₃, cells were fixed in 2% formaldehyde in PBS/BSA/NaN₃ for 30 minutes at 4° C. Binding of antibodies was measured using flow cytometry (FACSCalibur; BD Biosciences).

B2: polyhistidine-tagged recombinant human OX40 ligand (ligand, UniProt P23510 51-183, looked up)
chain: QVSHRYPRIQSIKVQFTEYKKEKGFILTSQKEDEIMKVQNNSVIINCDGFYLISLKGYFSQEVNISLHYQKDEEPLFQLKKVRSVNSLMVASLTYKDKVYLNVTTDNTSLDDFHVNGGELILIHQNPGEFCVL
notes: Bought; used together with mouse anti-polyhistidine antibody (clone AD1.1.10); also called CD252; not shown: polyhistidine tag
binding result [5]: binds

B4: chimeric human IgG4κ anti-human CD134 antibody clone 20E5 (antibody, V domains shown)
VH: EVQLQQSGPELVKPGASVKMSCKASGYTFTSYVMHWVKQKPGQGLEWIGYINPYNDGTKYNEKFKGKATLTSDKSSSTAYMELSSLTSEDSAVYYCANYYGSSLSMDYWGQGTSVTVSS
VL: DIQMTQTTSSLSASLGDRVTISCRASQDISNYLNWYQQKPDGTVKLLIYYTSRLHSGVPSRFSGSGSGTDYSLTISNLEQEDIATYFCQQGNTLPWTFGGGTKLEIKR
notes: Murine V-regions linked to human IgG4 and human kappa constant regions
EC50 [1]: ~0.1 µg/mL
EC50 [12]: ~1 µg/mL

Further lines, results first:

EC50 [1]: ~0.15 µg/mL
binding result [2]: binds
binding result [3]: binds
binding result [4]: binds
B1: humanized IgG4κ anti-human CD134 antibody clone 20E5 version 20E5_VL1VH1 (antibody, V domains shown)
VH: QVQLVQSGAEVKKPGASVKVSCKASGYTFTSYVMHWVRQAPGQRLEWMGYINPYNDGTKYNEKFKGRVTITSDTSASTAYMELSSLRSEDTAVYYCANYYGSSLSMDYWGQGTLVTVSS
VL: DIQMTQSPSSLSASVGDRVTITCRASQDISNYLNWYQQKPGKAPKLLIYYTSRLHSGVPSRFSGSGSGTDYTLTISSLQPEDFATYYCQQGNTLPWTFGQGTKVEIKR
notes: Stabilized human IgG4 (Angal et al.)/κ; also called 20E5_VL1H1; VL1H1

binding result [6]: no binding (tested: 50.0 µg/mL)
EC50 [1]: ~0.1 µg/mL
binding result [7]: binds
EC50 [8]: > 0.2 µg/mL
IC50 [9]: ~0.75 µg/mL
binding result [10]: no binding (tested: 20.0 µg/mL)
IC50 [11]: ~3.5 µg/mL
B3: chimeric human IgG4κ anti-human CD134 antibody clone 12H3 (antibody, V domains shown)
VH: EVQLQQSGPELVKPGASVKISCKTSGYTFKDYTMHWVKQSHGKSLEWIGGIYPNNGGSTYNQNFKDKATLTVDKSSSTAYMEFRSLTSEDSAVYYCARMGYHGPHLDFDVWGAGTTVTVSP
VL: DIVMTQSHKFMSTSLGDRVSITCKASQDVGAAVAWYQQKPGQSPKLLIYWASTRHTGVPDRFTGGGSGTDFTLTISNVQSEDLTDYFCQQYINYPLTFGGGTKLEIKR
notes: Murine V-regions linked to human IgG4 and human kappa constant regions; also called chimeric 12H3 (human IgG4/κ)
